Measured values taken from the supplement of paper PMC9170038.

Tested on: MS2 coat protein
Test: apparent KD of MS2 coat protein; designed switch direction (-1 OFF switch, 1 ON switch): -1; higher = weaker reporter binding
How it was run: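 The apparent KD reported per design is the median over clusters of curve fits to normalised cluster fluorescence. The RNA switches were transcribed on Illumina chips by stalled E. coli RNA polymerase. SNAP-549-labelled MS2 coat protein was titrated from 0.7 or 1.5 nM, doubling up to 3 µM, in Tris-HCl pH 7.5 buffer containing KCl, MgCl2, BSA, DTT, tRNA and Tween-20, with no input, 200 uM small-molecule ligand, or an oligonucleotide input.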

[1] = Eterna round: R95, input ligand: microRNA oligo, concentration not stated
[2] = Eterna round: R95, input ligand: FMN 200 uM
[3] = Eterna round: R95, input ligand: none

In the case of “ACUAGAUGAGGAUAUGCACAUUUUAGUGUUCCUCUAGAUUAACAUGAGGAUCACCCAUGUAGAAGGCGUCAUUU [Exclusion 2 - 13] (Eterna round: R96, puzzle: Exclusion 2)”, the “apparent KD of MS2 coat protein” value (input ligand: FMN 200 uM) is reported as 119 nM, the “apparent KD of MS2 coat protein” value (input ligand: microRNA oligo, concentration not stated) is reported as 59.1 nM and the “apparent KD of MS2 coat protein” value (input ligand: none) is reported as 84.2 nM.
For “ACUAGAUGAGGAUAUGCACAUUUUAGUGUUCCUCUAGAUUAACAUGAGGAUCACCCAUGUAGAAGGCGUCAUUU [Exclusion 2 - 13] (puzzle: Exclusion 2)”, the “apparent KD of MS2 coat protein” value [1] was 69.7 nM.
In the case of “ACUAGAUGAGGAUAUGCAUAUUUUCGUGUUCUUCUAGAUUAACAUGAGGAUCACCCAUGUAGAAGGCGUCAAUA [Exclusion 2 - 15] (puzzle: Exclusion 2)”, the “apparent KD of MS2 coat protein” value [1] is reported as 15.4 nM.
With “ACUAGAUGAGGAUAUGCAUGUUUUCAUGUUCUUCUAGAUUAACAUGAGGAUCACCCAUGUAGAAGGCGUCUUUU [Exclusion 2 - 31] (puzzle: Exclusion 2)” the “apparent KD of MS2 coat protein” value [1] was 22.4 nM.
“ACUCUGCGAGGAUAUACAUGAGGAUCACCCAUGUGCGAGUUACUUGUGAGGUCGGUUGGUAGAAGGCGCGGAGA [Mat - Exclusion 3 - Mod of JL D101] (puzzle: Exclusion 3)” was tested, and the “apparent KD of MS2 coat protein” value [1] was 89.7 nM.
With “ACUGGAGCAGGAUAUAUAUGACGUGCUUCGGCACGGUGAGUACAUGAGGAUCACCCAUGUAGAAGGGCUCCAGU [Exclusion 2 (Mod2 of Brourd's E2/9-D2)] (Eterna round: R97, puzzle: Exclusion 2)” the “apparent KD of MS2 coat protein” value (input ligand: FMN 200 uM) was 88.4 nM and the “apparent KD of MS2 coat protein” value (input ligand: none) was 23.4 nM.
In the case of “ACUGGUCGAGGAUAUACAUGAGGAUCACCCAUGUGAUCAGCAGUCCUCGGACUGCAAUGUAGAAGGCGACCAGU [E3/1-A2] (Eterna round: R97, puzzle: Exclusion 3)”, the “apparent KD of MS2 coat protein” value (input ligand: FMN 200 uM) is reported as 143 nM and the “apparent KD of MS2 coat protein” value (input ligand: none) is reported as 356 nM.
For “ACUUAUAGAGGAUAUACAGUUAAUUACAUGAGGAUCACCCAUGUUCUUCAAUGUAUAUAAGUAGAAGGCUAAGGAA [Ex5 Malc#5 mod] (Eterna round: R97, puzzle: Exclusion 5)”, the “apparent KD of MS2 coat protein” value (input ligand: FMN 200 uM) was 64.3 nM and the “apparent KD of MS2 coat protein” value (input ligand: none) was 16.7 nM.
For “ACUUAUGCGGAGGAUAUUUAACGUAGCGAAAGUAAAGAAGGCCGAACAUGAGGAUCACCCAUGUGGAGGUGUAA [Eternabot (L1) Solution 24] (Eterna round: R97, puzzle: Exclusion 6)”, the “apparent KD of MS2 coat protein” value (input ligand: FMN 200 uM) was 92.5 nM and the “apparent KD of MS2 coat protein” value (input ligand: none) was 23 nM.
With “ACUUAUUGAGGAUAUACAGAUUAUUACAUGAGGAUCACCCAUGUUCUUCAAUGUAUAUAUGUAGAAGGCAGAGGAA [JL-ex5-4.24 Malcolm mod] (Eterna round: R97, puzzle: Exclusion 5)” the “apparent KD of MS2 coat protein” value (input ligand: FMN 200 uM) was 87.6 nM and the “apparent KD of MS2 coat protein” value (input ligand: none) was 39.7 nM.
“ACUUGCGAUAUGCUCGUCUUAUUUUUGUUGACGUUCUAUACAUGAGGAUCACCCAUGUUUUGUUCCUUGUGCUGGUA [JR_SV3TOV2_Sub072] (puzzle: Sensor v3, turn-off variant 2)” was tested, and the “apparent KD of MS2 coat protein” value [2] was 161 nM, the “apparent KD of MS2 coat protein” value [1] was 170 nM and the “apparent KD of MS2 coat protein” value [3] was 184 nM.
For “ACUUGUGUUGAGGAUAUGCGCCGGCUCGCUGGCGCAGAAGGCGGCACAUGAGGAUCACCCAUGUCAGUUCGCGU [salish99_ex6_r004_002] (Eterna round: R97, puzzle: Exclusion 6)”, the “apparent KD of MS2 coat protein” value (input ligand: FMN 200 uM) was 300 nM and the “apparent KD of MS2 coat protein” value (input ligand: none) was 26.4 nM.
“ACUUUUUGAGGAUAUACAUUUAUCCACAUGAGGAUCACCCAUGUACAAACAUGUAUUUGUGUAGAAGGCAGAAGAA [JR_Ex5_Sub069] (Eterna round: R97, puzzle: Exclusion 5)” was tested, and the “apparent KD of MS2 coat protein” value (input ligand: FMN 200 uM) was 54.5 nM and the “apparent KD of MS2 coat protein” value (input ligand: none) was 60.7 nM.
With “AGAAAGCAAGGAUAUACAAGGAAACGACGGAAAGUAGAGAGACAUGAGGAUCACCCAUGUAGAAGGUGCGAGAA [JR_Exclu2_Sub032] (puzzle: Exclusion 2)” the “apparent KD of MS2 coat protein” value [2] was 33.8 nM, the “apparent KD of MS2 coat protein” value [1] was 28.7 nM and the “apparent KD of MS2 coat protein” value [3] was 26.5 nM.
With “AGAAAUGCCCAUGGCCACAAGCUUUUUGCUUAUCUUACCACAUGAGGAUCACCCAUGUGACAUGGGCUCCUGAUAAU [Teedor] (puzzle: Sensor v3, turn-off variant 2)” the “apparent KD of MS2 coat protein” value [2] was 18.5 nM, the “apparent KD of MS2 coat protein” value [1] was 19.4 nM and the “apparent KD of MS2 coat protein” value [3] was 17.1 nM.
